Experimental data from paper PMC3413289 (Science signaling, 2012).

Target: the molecule itself
Assay: SEC

| Protein | binding result |
| --- | --- |
| CC-L4-PlexinA1_(cyto) (other) VKQLEDKVEELLSKNAHLENEVARLKKLVGSSGSRDADRTLKRLQLQMDNLESRVALECKEAFAELQTDIHELTSDLDGAGIPFLDYRTYAMRVLFPGIEDHPVLKEMEVQANVEKSLTLFGQLLTKKHFLLTFIRTLEAQRSFSMRDRGNVASLIMTALQGEMEYATGVLKQLLSDLIEKNLESKNHPKLLLRRTESVAEKMLTNWFTFLLYKFLKECAGEPLFMLYCAIKQQMEKGPIDAITGEARYSLSEDKLIRQQIDYKTLTLNCVNPEHENAPEVPVKGLNCDTVTQVKEKLLDAVYKGVPYSQRPKAGDMDLEWRQGRMARIILQDEDVTTKIDNDWKRLNTLAHYQVTDGSSVALVPKQTSAYNISNSSTFTKSLSRYESMLRTASSPDSLRSRTPMITPDLESGTKLWHLVKNHDHLDQREGDRGSKMVSEIYLTRLLATKGTLQKFVDDLFETIFSTAHRGSALPLAIKYMFDFLDEQADKHQIHDSDVRHTWKSNCLPLRFWVNVIKNPQFVFDIHKNSITDACLSVVAQTFMDSCSTSEHKLGKDSPSNKLLYAKDIPNYKSWVERYYADIAKMPAISDQDMSAYLAEQSRLHLSQFNSMSALHEIYSYIAKYKDEILVALEKDEQARRQRLRSKLEQVVDTMALSS | binds |
| coiled-coil PlexinA1_(cyto) fusion with the 1-residue linker (other) VKQLEDKVEELLSKNAHLENEVARLKKLVGSRDADRTLKRLQLQMDNLESRVALECKEAFAELQTDIHELTSDLDGAGIPFLDYRTYAMRVLFPGIEDHPVLKEMEVQANVEKSLTLFGQLLTKKHFLLTFIRTLEAQRSFSMRDRGNVASLIMTALQGEMEYATGVLKQLLSDLIEKNLESKNHPKLLLRRTESVAEKMLTNWFTFLLYKFLKECAGEPLFMLYCAIKQQMEKGPIDAITGEARYSLSEDKLIRQQIDYKTLTLNCVNPEHENAPEVPVKGLNCDTVTQVKEKLLDAVYKGVPYSQRPKAGDMDLEWRQGRMARIILQDEDVTTKIDNDWKRLNTLAHYQVTDGSSVALVPKQTSAYNISNSSTFTKSLSRYESMLRTASSPDSLRSRTPMITPDLESGTKLWHLVKNHDHLDQREGDRGSKMVSEIYLTRLLATKGTLQKFVDDLFETIFSTAHRGSALPLAIKYMFDFLDEQADKHQIHDSDVRHTWKSNCLPLRFWVNVIKNPQFVFDIHKNSITDACLSVVAQTFMDSCSTSEHKLGKDSPSNKLLYAKDIPNYKSWVERYYADIAKMPAISDQDMSAYLAEQSRLHLSQFNSMSALHEIYSYIAKYKDEILVALEKDEQARRQRLRSKLEQVVDTMALSS | binds |
| coiled-coil PlexinA1_(cyto) fusion with the 7-residue linker (other) VKQLEDKVEELLSKNAHLENEVARLKKLVGSSGSSGSRDADRTLKRLQLQMDNLESRVALECKEAFAELQTDIHELTSDLDGAGIPFLDYRTYAMRVLFPGIEDHPVLKEMEVQANVEKSLTLFGQLLTKKHFLLTFIRTLEAQRSFSMRDRGNVASLIMTALQGEMEYATGVLKQLLSDLIEKNLESKNHPKLLLRRTESVAEKMLTNWFTFLLYKFLKECAGEPLFMLYCAIKQQMEKGPIDAITGEARYSLSEDKLIRQQIDYKTLTLNCVNPEHENAPEVPVKGLNCDTVTQVKEKLLDAVYKGVPYSQRPKAGDMDLEWRQGRMARIILQDEDVTTKIDNDWKRLNTLAHYQVTDGSSVALVPKQTSAYNISNSSTFTKSLSRYESMLRTASSPDSLRSRTPMITPDLESGTKLWHLVKNHDHLDQREGDRGSKMVSEIYLTRLLATKGTLQKFVDDLFETIFSTAHRGSALPLAIKYMFDFLDEQADKHQIHDSDVRHTWKSNCLPLRFWVNVIKNPQFVFDIHKNSITDACLSVVAQTFMDSCSTSEHKLGKDSPSNKLLYAKDIPNYKSWVERYYADIAKMPAISDQDMSAYLAEQSRLHLSQFNSMSALHEIYSYIAKYKDEILVALEKDEQARRQRLRSKLEQVVDTMALSS | binds |
